We go through 30 sequences from the nanobody polyreactivity screen of Harvey et al. (2022).

This series in a line: yeast display, Sf9 membrane polyspecificity reagent, FACS + sequencing; frameworks hold sequencing errors. The essentials:
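Nanobodies came from a synthetic yeast display library in Saccharomyces cerevisiae BJ5465, induced with galactose for 36–48 hours and stained for 1 hour at 4 °C with 10% biotinylated, detergent-solubilized Sf9 membrane reagent. Cells were enriched on streptavidin microbeads and then FACS-sorted, with low and high (top ~1%) gates set on anti-HA fluorescence for expression and streptavidin fluorescence for reagent binding. Each polyreactivity label reflects the gate a clone came from. Genes were amplified by colony PCR, sequenced by MiSeq 2 × 250 and filtered by CDR length.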
As to “QVQLVESGGGLVQAGGSLLLSCAASGRTFILNAMGWYRQAPGKERELVAAISWSGGSTYYADSVKGRFTISRDKSKNTVYLQMNSLKPEDPAVYYCAAETYAYLFHTYDYGGQGTQVTVSS”, the “polyreactivity (PSR sort gate)” value is “low polyreactivity”.

Turning to “QVQLVESGGGLVQAGGSLLLSCAASGRTFYYNAMGWYRQAPGKERELVAAISRGGNTNYADSVKGRFTISRDNAKNTVYLQMNSLKPEDTAVYYCSTYHRYKFYYWGQGTQVTVSS”, the “polyreactivity (PSR sort gate)” value is “high polyreactivity”.

On to “QVQLVESGGGLVQAGGSLLLSCAASGSIFGWYAMGWYRQAPGKERELVAAISSSGDSTYYADSVKGRFTISRDNAKNTVYLQMNSLKPEDTAVYYCAAEYWPSSPSAPGFDYDHWGQGTQVTVSS”, for which the “polyreactivity (PSR sort gate)” value was “low polyreactivity”.

Consider “QVQLVESGGGLVQAGGSLLLSCAASGSIFRVYAMGGYRQAPGKESELVAAISVSGSSTYYADSVKGRFTISRDNAKNTVYFQMNCLKREDTAVYYCATKQRRGYWGYITAYARYYWGQGTQVSVSS”, for which the “polyreactivity (PSR sort gate)” value is “high polyreactivity”.

As for “QVQLVESGGGLVQAGGSLLLSCAASGSTFIPYAMGWYRQAPWKERELVAAITWSSGSTYYADSVKVRFTISRDNAKNTVFLQMNSLKTEDTAVYYCARDRYSVFDYDYWGQGTQVTVSS”, the “polyreactivity (PSR sort gate)” value was “low polyreactivity”.

Turning to “QVQLVESGGGLVQAGGSLLLSCAASVFIYRWYAMGWYRPAPGKERELVAGISASGGSTYYADSVKGRFTISRDNAKNTVYLQMNSLKPEDTAVYYCAAYRRNSRWELDYWGQGTQVTVSS”, the “polyreactivity (PSR sort gate)” value was “high polyreactivity”.

In the case of “QVQLVESGGGLVQAGGSLLLSCAASVRIFQGYAMGWYRQEPGKERELVAAISSGGRTYYADSVKGRFTISRDNAKNTVYLQMNSLKPEDTAVYYCAARSPKAHGLQRFDYWGQGTQVTVSS”, the “polyreactivity (PSR sort gate)” value is “high polyreactivity”.

As for “QVQLVESGGGLVQAGGSLLLSCPASGRIFTWYAMGWYRQAPGKERELVAAINYNGDDTYYADSVKGRFTISRDNAKNTVYLQMNSLKPEDTAVYYCAAEGSRPPYDYWGQGTQVTVSS”, the “polyreactivity (PSR sort gate)” value was “high polyreactivity”.

Consider “QVQLVESGGGLVQAGGSLLLSGAPSGRTFPYYAMGWYRQAPGKERELVARISSDGSTTYADSVKGRITISRDHAKNTVYLQMNSLKPEDTAVYYSAADVTFAGLKYIFDYWGPGTQVTVSS”, for which the “polyreactivity (PSR sort gate)” value was “low polyreactivity”.

As for “QVQLVESGGGLVQAGGSLLVSCAASGRIFSYNAMGWYRQAPGKERELVAAITRSGSTNYADSVKGRFTISRDNANNTVYLQMNSLKPEDTAVYYCAAVVYRPYRWQYDYWGQGTQVTVSS”, the “polyreactivity (PSR sort gate)” value is on record as “high polyreactivity”.

For the sequence “QVQLVESGGGLVQAGGSLPLICADSGFISAYYAMGWYRQAPGKEREFVAGISKSGSSTSYADSVKGRFTISRDNAKKTVYLQMNSLKPEDTAVYYCAKYTPYYSELGYWGQGTQVTVSS”, the “polyreactivity (PSR sort gate)” value is “high polyreactivity”.

For “QVQLVESGGGLVQAGGSLPLRCAASGLILEYYAMGWYRQAPGKERELVAAITRGGSTYYADSVKWRFTISRDNAKNTVYLQMNSLKPEDTAVYYCAADRYYYEYDYWGQGTQVNVSS”, the “polyreactivity (PSR sort gate)” value is on record as “low polyreactivity”.

As for “QVQLVESGGGLVQAGGSLPLSCAASGLTIFVNAMGWYRQAPGKERELVATISGGGSTYYADSVKGRFTISRDNAKNTVYLQMNSLKREDTAVYYCNAADVGGPWWYPYTYNYWGQGTQVTVSS”, the “polyreactivity (PSR sort gate)” value was “low polyreactivity”.

“QVQLVESGGGLVQAGGSLPLSCAASGRTFHYNAMGWYRQAPGKERDLFAAISRDGGSTDYADSVKGRFTISSDNAKNTVYLQMNSLKPEDTAVYYCAAPIGKQEFSRDYDYWGQGTQVTVSS”: the “polyreactivity (PSR sort gate)” value is listed as “low polyreactivity”.

For the sequence “QVQLVESGGGLVQAGGSLPLSCAASGRTFYYYAMGWYRQAPGKERELVAAISWSGGRTYYADSVKGSFTISRDNAKNTVYLQMNSLKPADTAVYYCNAEPPRGYTVSSGGEMDYWGQCTQVTVSS”, the “polyreactivity (PSR sort gate)” value is on record as “low polyreactivity”.

On to “QVQLVESGGGLVQAGGSLPLSCAASGSIFDDYAMGWYRQAPGKEWELVAAITSGGSTYYADSVKGRFTISRDNAKYTVYLQMNSLKPEDTAVYYCAAPENKYDEYDYWGQGTQVTVSS”, for which the “polyreactivity (PSR sort gate)” value was “low polyreactivity”.

Consider “QVQLVESGGGLVQAGGSLPLSCAASGSIFLYNAMGWYRQAPGKERELVAGITFIGGSTYYADSVKGRFTISRDNAKNSVYLQMNSLKPEDTAVYYCNRLGVYWVGTEFDYWGQGTQVTLSS”, for which the “polyreactivity (PSR sort gate)” value is listed as “low polyreactivity”.

“QVQLVESGGGLVQAGGSLPLSCAASGSISGLNARGWSRQAPGTEREMVAAISRSGTRRYYADSVKGRFTISRDNEKNTVYLQMNSLKPEDSAVYYCAVQYAVAVGRYNYWGQGTQVTVSS”: the “polyreactivity (PSR sort gate)” value is reported as “high polyreactivity”.

For the sequence “QVQLVESGGGLVQAGGSLPLSCAASGSTFNGYAMGWYIQAPGKEWELVAVISSGGTTNYADSVKGRFTISRDNAKNTVYLQMNSLKPEDTAVYYCAADIGHRYHYRFDYWGQGTQVTVSS”, the “polyreactivity (PSR sort gate)” value is reported as “low polyreactivity”.

Consider “QVQLVESGGGLVQAGGSLPLSCAASGYTFDANAMGWYRQAPGKERELVASISSISDSTDYADSVKGRFTISRDNAKNTVYLQMNSLKPEDTAVYYCARSDVKPGRQERDYWGQGTQVTVSS”, for which the “polyreactivity (PSR sort gate)” value is listed as “low polyreactivity”.

Consider “QVQLVESGGGLVQAGGSLPLSCYDSGITIPDYYMGCFRQSPGKERELVAAITYRSGSTYNADSVKGRFTISRDNAKNTVYLQMNSLKQEDTAVFYCAAKRFLLRYYTKQYNYWGLGTQVTVSS”, for which the “polyreactivity (PSR sort gate)” value is reported as “high polyreactivity”.

With “QVQLVESGGGLVQAGGSLRCSCAASGRTFGTYAMGWYRQAPGKERELVAAISTRDGSTYYADSVKGRYTISRDTAKNTVYLQMNSLKPEDTAVYYCNAVVRYYDWGYWDYDYWGQGTQVTVSS”, the “polyreactivity (PSR sort gate)” value was “low polyreactivity”.

As to “QVQLVESGGGLVQAGGSLRESCAASGSISAEYVMGWYRKAPGKERELVAAISVSAGTTYYADSVKGRFTISRDNAKTTVYLHMNSLKPEDTAVYYCAATDSYYWLYYYGYSPCNDYWGQGTQVTVSS”, the “polyreactivity (PSR sort gate)” value is “low polyreactivity”.

Turning to “QVQLVESGGGLVQAGGSLRFSCAASGFIFSNYAMGWYRQAPGKERELVAAITSGGSTNYADSVKGRFTISRDNAKNTVYLQMNSLKPEDTAVYYCAAERGDTAYRKYDYWGQGTQVTVSS”, the “polyreactivity (PSR sort gate)” value is given as “low polyreactivity”.

Consider “QVQLVESGGGLVQAGGSLRFSCAASGFTFPYYAMGWYRQAPGKERELVAAITGRGGSSYYADSVKGRFTISRDNAKNTVYLQMNSLKPEDTAVYYCAARRSSRSKRLNYWGQGTQVTVSS”, for which the “polyreactivity (PSR sort gate)” value is recorded as “high polyreactivity”.

“QVQLVESGGGLVQAGGSLRFSCAASGFTFSDYAMGWYRQAPGKEREFVAAITRRGGSTYYADSVKGRFTISRDNAKNTVYLQMNSLKPEDTAVYYCAKRGLRSYSFPLWQGYDYWGQGTQVTVSS”: the “polyreactivity (PSR sort gate)” value is “high polyreactivity”.

On to “QVQLVESGGGLVQAGGSLRFSCAASGFTFVINDMGWYRQAPGKERELVADITSGGDTYYADSVKGRFTISRDNAKNTVYLQMNSLKPEDTAVYYCAADIYPDWIYLLYGYWGQGTQVTVSS”, for which the “polyreactivity (PSR sort gate)” value is “low polyreactivity”.

As to “QVQLVESGGGLVQAGGSLRFSCAASGGIYYLYAMGWYRQAPGKEREFVAAISSSGGSTNYADSVMGRFTISRDNAKNTVYLQMNSLKRDDSAVYYCNAVDWKQEVGGWVEYDYWGQGTQVNVSS”, the “polyreactivity (PSR sort gate)” value is given as “high polyreactivity”.

As for “QVQLVESGGGLVQAGGSLRFSCAASGHIFFYYTMGWYRQAPGKERELVAGITQSGGNTYYADSVKGRFTISRDNAKNTVYLQMNSLKPEDTAVYYCAARIRGTWKYGYWGQGTQVTVSS”, the “polyreactivity (PSR sort gate)” value is “low polyreactivity”.

For “QVQLVESGGGLVQAGGSLRFSCAASGITFSSYGMGWYRQAPGKERELVAAISWDSGSTYYADSVKGRFTISRDNAKNTVYLQMNSLKPEQTAVYYCNAVYYSVYRFDYWGQGTQVTVSS”, the “polyreactivity (PSR sort gate)” value was “high polyreactivity”.
